The values that follow come from patent US20100093033.

The target in data set [1] is LacI-HP1 fusion (Escherichia coli LacI; Drosophila melanogaster HP1a) (UniProt P03023). Put plainly: cell_activity. The conditions noted are these: sIgM loss; chromatin effects largely reversed by 250 uM IPTG.
For data set [2], the target named is HIRA-LacI fusion (Escherichia coli LacI; HIRA organism not stated) (UniProt P03023). In words: cell_activity. The conditions noted are these: sIgM loss; untethered HIRA 1.7-fold.
The target of data set [3] is E47-LacI fusion (Escherichia coli LacI; E47 organism not stated) (UniProt P03023). In words: cell_activity. The conditions noted are these: sIgM loss; almost reversed by 100 uM IPTG.
For data set [4], the target named is Lactose repressor LacI (Escherichia coli) (UniProt P03023). The conditions noted are these: CITED general LacO affinity, method not stated; printed as <10-12 M; cited from earlier work.
Data set [5] relates to E2A (Gallus gallus). The conditions noted are these: ChIP with anti-E2A vs IgG, normalized to ovalbumin.

The term Kd denotes the equilibrium constant for the complex coming apart.

Turning to “PolyLacO at Igλ (about 80-100 repeats of 20 bp lac operator, 3.8 kb)”, the figures for the activity (fold diversification vs GFP-LacI) in data set [1], in data set [2] and in data set [3] were 5.6, 11 and 4.5, respectively. For the same substance, the Kd in data set [4] is less than 1 pM.

In data set [5], rearranged VλR allele, DT40 gave a binding signal (fold enrichment) of 17.6.
